Holding throughout (assay): fluorescence-based enzyme inhibition assay
Assay [1] deals with T1, Cathepsin L (UniProt P07711 114-333).
For assay [2], the target named is T1, Cathepsin L. This is another data set of the same source.
Assay [3] addresses T2, Cathepsin S (UniProt P25774 115-331).
Assay [4] deals with T3, Cathepsin K (UniProt P43235 115-329).
T3 sequence (looked up): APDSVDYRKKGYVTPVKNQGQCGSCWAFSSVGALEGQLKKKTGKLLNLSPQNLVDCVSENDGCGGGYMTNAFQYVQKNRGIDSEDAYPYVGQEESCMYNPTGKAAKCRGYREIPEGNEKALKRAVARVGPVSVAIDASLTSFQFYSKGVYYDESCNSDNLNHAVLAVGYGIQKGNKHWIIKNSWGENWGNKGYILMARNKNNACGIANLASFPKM

The target of assay [5] is T4, Calpain-1.
T4 chain 1: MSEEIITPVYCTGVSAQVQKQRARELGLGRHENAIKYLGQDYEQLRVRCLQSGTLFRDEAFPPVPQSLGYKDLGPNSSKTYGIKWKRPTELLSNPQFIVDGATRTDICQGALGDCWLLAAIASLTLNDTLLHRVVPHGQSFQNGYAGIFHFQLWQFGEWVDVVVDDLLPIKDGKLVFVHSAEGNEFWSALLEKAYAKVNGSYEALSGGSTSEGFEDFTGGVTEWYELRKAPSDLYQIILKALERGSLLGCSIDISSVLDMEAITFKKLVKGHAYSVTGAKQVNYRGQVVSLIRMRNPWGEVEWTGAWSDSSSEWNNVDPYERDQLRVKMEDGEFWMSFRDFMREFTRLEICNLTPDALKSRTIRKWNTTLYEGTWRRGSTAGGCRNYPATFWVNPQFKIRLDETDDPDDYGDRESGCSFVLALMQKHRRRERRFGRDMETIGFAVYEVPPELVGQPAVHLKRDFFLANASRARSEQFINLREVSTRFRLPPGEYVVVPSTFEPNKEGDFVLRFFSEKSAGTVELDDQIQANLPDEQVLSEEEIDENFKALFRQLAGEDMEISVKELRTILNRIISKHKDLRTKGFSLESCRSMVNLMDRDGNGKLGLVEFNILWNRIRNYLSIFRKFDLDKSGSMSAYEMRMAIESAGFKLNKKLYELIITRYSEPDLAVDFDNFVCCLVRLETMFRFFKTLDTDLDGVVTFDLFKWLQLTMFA
T4 chain 2: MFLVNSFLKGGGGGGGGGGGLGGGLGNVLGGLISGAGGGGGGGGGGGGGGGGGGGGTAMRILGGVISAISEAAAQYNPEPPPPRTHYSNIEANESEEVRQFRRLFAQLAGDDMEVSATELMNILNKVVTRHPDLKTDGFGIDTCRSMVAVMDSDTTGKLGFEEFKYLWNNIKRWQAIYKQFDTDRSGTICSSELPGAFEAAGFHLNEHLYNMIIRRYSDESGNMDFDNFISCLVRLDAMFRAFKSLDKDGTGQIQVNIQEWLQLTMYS

In assay [6] the target is Calpain-1. This is another data set of the same source.
Assay [7] addresses T3, Cathepsin K. This is another data set of the same source.
Assay [8] has as its target T1, Cathepsin L. The source holds these as a separate data set.
Assay [9] has as its target T4, Calpain-1.
The target of assay [10] is T1, Cathepsin L. This is another data set of the same source.
In assay [11] the target is T2, Cathepsin S. This is another data set of the same source.
The target in assay [12] is T3, Cathepsin K. The source holds these as a separate data set.

The values below come from patent US20150133367A1 (University of Pennsylvania, published 2015).

Where “and” joins values, the source holds several entries; their conditions need not be identical. Equal entries are not always repeated. Where two headings read alike, the source gives them in different places. Positions of bridges follow the written chain, without caps; N, C: chain ends. Non-standard residues stand in square brackets, D forms with d. No end group written: not given here. alpha,alpha'‑meta‑xylylene = alpha,alpha'-meta-xylylene linker (from a,a'-dibromo-meta-xylene) bridging two cysteines via bis-thioether; Bip = N[C@@H](Cc1ccc(-c2ccccc2)cc1)C(=O)O; 2Nal = N[C@@H](Cc1ccc2ccccc2c1)C(=O)O

T2 sequence (P25774 115-331 limits assumed): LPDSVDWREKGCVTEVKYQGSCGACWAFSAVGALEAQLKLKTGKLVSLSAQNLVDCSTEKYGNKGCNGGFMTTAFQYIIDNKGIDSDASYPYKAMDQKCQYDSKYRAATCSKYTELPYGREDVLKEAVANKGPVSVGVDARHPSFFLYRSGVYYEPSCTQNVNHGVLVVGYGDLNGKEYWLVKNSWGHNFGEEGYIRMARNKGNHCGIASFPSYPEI
T1 sequence (P07711 114-333 limits assumed): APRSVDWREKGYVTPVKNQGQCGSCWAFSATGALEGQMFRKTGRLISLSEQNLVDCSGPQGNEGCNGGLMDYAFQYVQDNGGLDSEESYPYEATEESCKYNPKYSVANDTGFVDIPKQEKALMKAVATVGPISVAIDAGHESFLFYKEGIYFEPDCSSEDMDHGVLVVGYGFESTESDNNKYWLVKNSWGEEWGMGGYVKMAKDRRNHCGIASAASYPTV

For the molecule SECFRQCMNGF (linker 3-7 via alpha,alpha'‑meta‑xylylene) [SECFRQCMNGF (SEQ ID NO:2)], the Ki (in general, a measure of affinity in units of concentration, obtained from inhibition or displacement) in assay [1] came to 84.7 µM. That is a double-digit micromolar value.
As for QCEVVCKMTGL (linker 2-6 via alpha,alpha'‑meta‑xylylene) [QCEVVCKMTGL (SEQ ID NO:34)], the Ki came to 46.2 µM in [2], 43.5 µM in assay [3] and 76.8 µM in assay [4].
SCESVCKMTGL (linker 2-6 via alpha,alpha'‑meta‑xylylene) [SCESVCKMTGL (SEQ ID NO:37)]: the Ki is 10.8 µM in [3] and > 100 µM in [4].
As for SCEVVCKPTGL (linker 2-6 via alpha,alpha'‑meta‑xylylene) [SCEVVCKPTGL (SEQ ID NO:39)], the Ki is 48 µM in [2], 58.3 µM in assay [3] and > 100 µM in assay [4].
For SCEVVCKMTGP (linker 2-6 via alpha,alpha'‑meta‑xylylene) [SCEVVCKMTGP (SEQ ID NO:44)], the Ki is 27.8 µM in [3]; 1.34 µM and 0.659 µM in assay [4].
With SCE[Bip]RCVMNG[2Nal] (linker 2-6 via alpha,alpha'‑meta‑xylylene, also called compound (IIIa)) [SCE(bip)RCVMNG(nap) (SEQ ID NO:9)], the Ki in [5] is 19.8 µM.
For the molecule IPPK[Bip]CELLC (linker 6-10 via alpha,alpha'‑meta‑xylylene) [IPPK(bip)CELLC (SEQ ID NO:82)], the Ki in [6] was 9.65 µM.
For the molecule SCEFRCVMNGF (linker 2-6 via alpha,alpha'‑meta‑xylylene) [SCEFRCVMNGF (SEQ ID NO:3)], the results for the Ki in assay [1] and in [7] were 29.4 µM and > 100 µM, respectively.

B1: IPPK(OBn-Y)CELLC (SEQ ID NO:83) (peptide)
peptide: IPPKXCELLC
modifications: Cys6 and Cys10 (i,i+4) linked by alpha,alpha'-meta-xylylene; residue 5 OBn-Y = O-benzyltyrosine
Regarding B1, the results for the inhibition constant Ki in assay [6] and in assay [8] were 21.3 µM and 16.7 µM, respectively.
As to WWEWVCSLMCS (linker 6-10 via alpha,alpha'‑meta‑xylylene, triple mutant) [WWEWVCSLMCS (SEQ ID NO:25)], the inhibition constant (Ki) in assay [9] amounted to 85.5 µM; in assay [10], 16.1 µM; in assay [11], 6.74 µM; in [12] it was 19.5 µM.

B2: WWEWWCSLMCS (SEQ ID NO:26) (peptide)
peptide: WWEWWCSLMCS
modifications: linker 6-10 via alpha,alpha'‑meta‑xylylene
notes: quadruple mutant; also called compound (IVa)
With B2, the inhibition constant (Ki) was 66.7 µM in [9], 28.1 µM in [10], 1.23 µM in assay [11] and 37.9 µM in assay [12].
